Assay results from the nanobody polyreactivity screen of Harvey et al. (2022).

Experiment: yeast display, Sf9 membrane polyspecificity reagent, FACS + sequencing; frameworks hold sequencing errors
Method in brief: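 A nanobody's polyreactivity label depends on the gate it was sorted from. Yeast display cells were stained with 10% biotinylated, detergent-solubilized Sf9 membrane reagent for 1 hour at 4 °C, enriched on streptavidin microbeads and sorted by FACS. The low and high (top ~1%) gates were set on anti-HA fluorescence for expression and streptavidin fluorescence for reagent binding.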

**Q.** For “QVQLVESGGGLVQAGGSLRLSCAASGLTFRDNAMGWYRQAPGKERELVAAISTNGGSTYYADSVKGRFTISRDNAKNTVYLQMNSLKPEDTAVYYCAKSFLTQYPQVDSDYWGQGTQVTVSS”, which “polyreactivity (PSR sort gate)” value is on record?
**A.** The value was “low polyreactivity”.

**Q.** With “QVQLVESGGGLVQAGGSLRLSCAASGLTFRFYAMGWYRQAPGKERELVAVISGRGTSTYYADSVKGRFTISRDNAKNTVYLLMNSLKPEDTAVYYCAARYVAYAYVGNDYWGQGTQLTVSS” as the sequence, how does the “polyreactivity (PSR sort gate)” value read?
**A.** The value was “high polyreactivity”.

**Q.** Which “polyreactivity (PSR sort gate)” value does the source give for “QVQLVESGGGLVQAGGSLRLSCAASGLTFRLNAMGWYRHAPGKERELVAAITRGGRTNYADSVKGRFTISRDNAKNTVYLQMNSLKPEDTAVYYCAARYVERHTDYYYWGQGTQVTVSS” here?
**A.** Its value is “low polyreactivity”.

**Q.** For “QVQLVESGGGLVQAGGSLRLSCAASGLTFRLNAMGWYRQAPGKERELVAAITAIGDRTYYADSVKGRFTISRDNAKNTVYLQMNSLKPEDTAVYYCNVTPRRAQVRIGNYWGQGTQVTVSS”, which “polyreactivity (PSR sort gate)” value is on record?
**A.** The value was “high polyreactivity”.

**Q.** Which “polyreactivity (PSR sort gate)” value does the source give for “QVQLVESGGGLVQAGGSLRLSCAASGLTFRRYAMGWYRQAPGKVRELVAGISRGGSTYYADSVKGRFTISRDNAKNTVYLQMNSLKPEDTAVYYCAAYNRGTYPVQPVPYDMDYWGQGTQVTVSS” here?
**A.** The value was “low polyreactivity”.

**Q.** With “QVQLVESGGGLVQAGGSLRLSCAASGLTFRVYAMGWYRQAPGKERELVAAITGGGGSTYADSVKGRFTISRDNAKNTVYLQMNSLKPEDTAVYYCAAASPWDRDDYWGQGTQVTVSS” as the sequence, how does the “polyreactivity (PSR sort gate)” value read?
**A.** The value was “low polyreactivity”.

**Q.** With “QVQLVESGGGLVQAGGSLRLSCAASGLTFRWYAMGWYRQAPGKERELVAAISSSGRTNYADSVKGRFTISRDNAKNTVYLQMNSLKPEDTAVYYCAADSSWRTSDYWGQGTQVTVSS” as the sequence, how does the “polyreactivity (PSR sort gate)” value read?
**A.** The value was “low polyreactivity”.

**Q.** With “QVQLVESGGGLVQAGGSLRLSCAASGLTFRWYAMGWYRRAPGKERELVAAISSGGSTNYADSVKGRFTISRDNAKNTVYLQMNSLKPEDTAVYYCNAKGRPWFKYDYWGQGTQVTVSS” as the sequence, how does the “polyreactivity (PSR sort gate)” value read?
**A.** The value was “high polyreactivity”.

**Q.** Which “polyreactivity (PSR sort gate)” value does the source give for “QVQLVESGGGLVQAGGSLRLSCAASGLTFRYYAMGWYRQAPGKERELVAAINYSGGGTYYADSVKGRFTISRDNAKNTVYLQMNSLKPEDTAVYYCNAAYRGYYYWGQGTQVTVSS” here?
**A.** Its value is “high polyreactivity”.

**Q.** Which “polyreactivity (PSR sort gate)” value does the source give for “QVQLVESGGGLVQAGGSLRLSCAASGLTFRYYAMGWYRQAPGKERELVAAITGSGGSTYYADSVKGRFTISRDNAKNTVYLQMNSLKPEDTAVYYCADVIAEYDYFSYYYEYDYWGQGTQVTVSS” here?
**A.** Its value is “high polyreactivity”.

**Q.** For “QVQLVESGGGLVQAGGSLRLSCAASGLTFRYYAMGWYRQAPGKERELVAAITRRGSTYYADSVKGRFTISRDNAKNTVYLQMISLKPEDTAVYYCATVTGFHSSPLRDLDYWGQGTQVTVSS”, which “polyreactivity (PSR sort gate)” value is on record?
**A.** Its value is “high polyreactivity”.

**Q.** Which “polyreactivity (PSR sort gate)” value does the source give for “QVQLVESGGGLVQAGGSLRLSCAASGLTFRYYAMGWYRQAPGKERELVAAITRRGSTYYADSVKGRFTISRDNAKNTVYLQMNCLKPEDTAVYYCATVTGFHSSPLRDLDYWGQGTQVTVSS” here?
**A.** Its value is “high polyreactivity”.

**Q.** For “QVQLVESGGGLVQAGGSLRLSCAASGLTFRYYSMGWYSQAPGKERELVASISWSGASTYYADSVKGRFTISRDNAKNTVYLQMNSLKPEDTGVYYCNAGYYGSYDYWGQGTQVTVSS”, which “polyreactivity (PSR sort gate)” value is on record?
**A.** The value was “high polyreactivity”.

**Q.** Which “polyreactivity (PSR sort gate)” value does the source give for “QVQLVESGGGLVQAGGSLRLSCAASGLTFRYYTMGWYRQAPGKERELVAAISRTVGSTYYADSVKGRFTISRDNAKNTVYLQMNSLKPEDTAVYYCAAKYEQYSPAVIYYYWGQGTQVTVSS” here?
**A.** The value was “high polyreactivity”.

**Q.** For “QVQLVESGGGLVQAGGSLRLSCAASGLTFSAYAMGWYRQAPGKERELVAAITSSGGSTYADSVKGRFTISRDNAKNTVYLQMNSLKPEDTAVYYCNADLGDYGWYSSYDYWGQGTQVTVSS”, which “polyreactivity (PSR sort gate)” value is on record?
**A.** Its value is “low polyreactivity”.

**Q.** For “QVQLVESGGGLVQAGGSLRLSCAASGLTFSAYAMGWYRQAPGKERELVAAITSSGGSTYADSVKGRFTLSRDNAKNTVYLQMNSRKPEDTAVYYCNADLGDYGWYSSYDYWGQGNQVTVSS”, which “polyreactivity (PSR sort gate)” value is on record?
**A.** The value was “low polyreactivity”.

**Q.** Which “polyreactivity (PSR sort gate)” value does the source give for “QVQLVESGGGLVQAGGSLRLSCAASGLTFSGNVMGCYIQAPGKERELVAAIDRSGGSTYYADSVKGRFTISRDNAKNTVYLQMNSLKPEDTAVYYCAVSSYPNHSRSWDDYWGQGTQVTVSS” here?
**A.** The value was “low polyreactivity”.

**Q.** Which “polyreactivity (PSR sort gate)” value does the source give for “QVQLVESGGGLVQAGGSLRLSCAASGLTFSHYAMGWYRQAPGKERELVAGISSRGGNTYYADSVKGRFTISRDNAKNTVYLQMNSLKPEDTAVYYCATPRSRTDGYDYWGQGTQVTVSS” here?
**A.** Its value is “high polyreactivity”.

**Q.** Which “polyreactivity (PSR sort gate)” value does the source give for “QVQLVESGGGLVQAGGSLRLSCAASGLTFSIYAMGWYRQAPGKERELVAAISWSGGSTYYADSVKGRFTISRDNAKNTVYLQMNSLKPEDTAVYYCAARVYRPWWRYDYWGQGTQVTVSS” here?
**A.** Its value is “high polyreactivity”.

**Q.** Which “polyreactivity (PSR sort gate)” value does the source give for “QVQLVESGGGLVQAGGSLRLSCAASGLTFSIYAMGWYRQAPGKERELVAGISQSGGSTYADSVKGRFTISRDNAKNTVYLQMNSLKPADTAVYYCAKEFEWVGSPSTVDGLDYWGHGTQVTVSS” here?
**A.** Its value is “low polyreactivity”.

**Q.** For “QVQLVESGGGLVQAGGSLRLSCAASGLTFSRNAMGWYRQAPGKERELFATINSGGRTNYADSVKGRFTISRDNAKNTVYLQMNSQKPEDTAVYYCAVRTYSNYRAIVPYCRYDYWGQGTQVTVSS”, which “polyreactivity (PSR sort gate)” value is on record?
**A.** The value was “high polyreactivity”.

**Q.** Which “polyreactivity (PSR sort gate)” value does the source give for “QVQLVESGGGLVQAGGSLRLSCAASGLTFSRNTMGWYRQAPGKERELVDTIDRGGRTNYADSVKGRFTISRDNAKNTVYLQMNSLKPEDTAVYYCATDASFYDPDLYPYGYDYWGQGTQVTVSS” here?
**A.** Its value is “high polyreactivity”.

**Q.** With “QVQLVESGGGLVQAGGSLRLSCAASGLTFSYYAMGWYRQAPGKERELVAAITSGGNTNYADSVKGRFTISRDNAKNTVYLQMNSLKPEDTAVYYCAARFYFTRSFPRKFYYWGQGTQVTVSS” as the sequence, how does the “polyreactivity (PSR sort gate)” value read?
**A.** The value was “high polyreactivity”.

**Q.** For “QVQLVESGGGLVQAGGSLRLSCAASGLTFSYYVMGWYRQAPGKVRELVAAISSGGSTNYADSVKGRFTMSRDNAKNTVYLQLNSLKPEDTAVYYCAARNARADKQCTRWRNYWGQGTQVTVSS”, which “polyreactivity (PSR sort gate)” value is on record?
**A.** The value was “low polyreactivity”.

**Q.** Which “polyreactivity (PSR sort gate)” value does the source give for “QVQLVESGGGLVQAGGSLRLSCAASGLTFTGYAMGWYRQATGKERELVASISRSGASTFYADSVKGRFTISRDNAKNTVYLQMNSLKPEDTAVYYCAAVPGWLTSRYYYWGQGTQVTVSS” here?
**A.** The value was “high polyreactivity”.

**Q.** Which “polyreactivity (PSR sort gate)” value does the source give for “QVQLVESGGGLVQAGGSLRLSCAASGLTFTLYTMGWYRQAPGKEREFVAVISGTGGRTYYADSVKGRFTISRDNAKNTVYLQMNSLKPEDTAVYYCATCYSFRYWGQGTQVTVSS” here?
**A.** The value was “high polyreactivity”.

**Q.** For “QVQLVESGGGLVQAGGSLRLSCAASGLTFTSYVMGWYRQAPGKERELVAAIRWSGGRTYYADSVKGRFTISRDNAKNTVYLQMNSLKPEDTAVYYCAAQWYSGSHGYYYWGQGTQVTVSS”, which “polyreactivity (PSR sort gate)” value is on record?
**A.** The value was “high polyreactivity”.

**Q.** For “QVQLVESGGGLVQAGGSLRLSCAASGLTFTVYGMGWSRQAPGKEREFVATISRRGGRTYYADSVKGRFTISRDNAKNTVYVLLNSLKPEDTAVYYCNADIGTYVRSGGGDYWGQGTQVTVSS”, which “polyreactivity (PSR sort gate)” value is on record?
**A.** Its value is “low polyreactivity”.

**Q.** Which “polyreactivity (PSR sort gate)” value does the source give for “QVQLVESGGGLVQAGGSLRLSCAASGLTFTYNAMGGYRQAPGKERELVAAITSGGNTNYADSVKGRFTISRDNAKNTVYLQMKSLKPEDTAVYYCATDRKNGISGRYGYWGQGTQVTVSS” here?
**A.** The value was “low polyreactivity”.

**Q.** With “QVQLVESGGGLVQAGGSLRLSCAASGLTFVAYAMGWYRQAPGKERELVASISSRTGGTSYADSVKGRFTISRDNAKNTVYLQMNSLKPEDTAVYYCNAAARRYTSVFYTSGYTFDYWGQGTQVTVSS” as the sequence, how does the “polyreactivity (PSR sort gate)” value read?
**A.** The value was “low polyreactivity”.

**Q.** For “QVQLVESGGGLVQAGGSLRLSCAASGLTFVFYAMGWYRQAPGKERELVAAISWSTGRTYYADSVKGRFTISRDNAKNTVYLQMNSLKPEGTAVYYCAASYLGRKYDYWGQGTQVTVSS”, which “polyreactivity (PSR sort gate)” value is on record?
**A.** The value was “high polyreactivity”.
